According to patent US20200140552A1 (Sanofi, published 2020):
Numbering of substitutions follows the chain as printed.

Key:
[1] = molecular target: T1, cynomolgus monkey CD38 expressed on the surface of recombinant murine preB::300.19 cells (cynomolgus monkey, UniProt Q5VAN0 1-301); experiment: flow cytometry on cCD38-expressing murine preB::300.19 cells
T1 construct: whole, on cells; also called cCD38-expressing cells; cells expressing cynomolgus CD38

[2] = molecular target: T2, human CD38 expressed on the surface of recombinant murine preB::300.19 cells (human, UniProt P28907 1-300); experiment: flow cytometry on hCD38-expressing murine preB::300.19 cells
T2 construct: whole, on cells; also called hCD38-expressing cells; cells expressing human CD38

[3] = molecular target: T1, cynomolgus monkey CD38 expressed on the …; experiment: flow cytometry on cCD38-expressing murine preB::300.19 cells, apparent KD (called EC50 in paragraph 336)
[4] = molecular target: T2, human CD38 expressed on the surface of …; experiment: flow cytometry on hCD38-expressing murine preB::300.19 cells, apparent KD (called EC50 in paragraph 336)
[5] = molecular target: T3, human CD3 (SPR antigen of Example 2) (human); experiment: SPR; KD rounded to integer; the cell gives two values for mid/low, the first taken as the CD3mid construct
T3 chain: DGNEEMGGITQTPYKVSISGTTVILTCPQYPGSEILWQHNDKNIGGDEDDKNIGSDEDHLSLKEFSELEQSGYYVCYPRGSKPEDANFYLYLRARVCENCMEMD

[6] = molecular target: T4, recombinant human CD38 (SPR antigen of Example 2) (human, UniProt P28907 43-300); experiment: as above
[7] = molecular target: human CD28 (SPR antigen of Example 2) (human, UniProt P10747 19-152); experiment: as above
[8] = molecular target: T4, recombinant human CD38 (SPR antigen of …); experiment: SPR against recombinant protein; the cell gives two values for mid/low, the first taken as the CD3mid construct
[9] = molecular target: T4, recombinant human CD38 (SPR antigen of …); experiment: SPR, target binding without other targets present
[10] = molecular target: T4, recombinant human CD38 (SPR antigen of …); experiment: SPR, target binding with the other two targets in saturation
[11] = molecular target: T2, human CD38 expressed on the surface of …; experiment: flow cytometry on hCD38-expressing murine preB::300.19 cells, apparent KD (called EC50 in paragraph 335)
hCD38-his (SEQ ID NO: 2) = molecular target: T5, hCD38-his (SEQ ID NO: 2) (human, UniProt P28907 45-300); experiment: SPR (summary table; Table K value rounded)
T5 construct: also called human CD38-histag (ID2); soluble extracellular domain of humanCD38

[12] = molecular target: T2, human CD38 expressed on the surface of …; experiment: flow cytometry on CD38-expressing murine preB::300.19 cells, apparent KD
cCD38-his (SEQ ID NO: 4) = molecular target: T6, cCD38-his (SEQ ID NO: 4) (cynomolgus monkey, UniProt Q5VAN0 46-301); experiment: SPR (summary table; Table K value rounded)
T6 construct: also called cyno CD38-histag (ID3); soluble extracellular domain of cynomolgusCD38

B1: CD38VH1xCD28cvnxCD3mid trispecific binding protein (other)
VH 1: QVQLQESGPGLVKPSQTLSLTCTVSGFSLSDYGVHWVRQPPGKGLEWLGVIWAGGGTNYNPSLKSRKTISKDTSKNQVSLKLSSVTAADTAVYYCARDKGYSYYYSMDYWGQGTTVTVS
VL 1: DIVLTQSPASLAVSPGQRATITCRASESVEYYVTSLMQWYQQKPGQPPKLLIFAASNVESGVPARFSGSGSGTDFTLTINPVEANDVANYYCQQSRKVPYTFGQGTKLEIK
VH 2: QVQLVESGGGVVQPGRSLRLSCAASGFTFTKAWMHWVRQAPGKQLEWVAQIKDKSNSYATYYADSVKGRFTISRDDSKNTLYLQMNSLRAEDTAVYYCRGVYYALSPFDYWGQGTLVTVSS
VL 2: DIVMTQTPLSLSVTPGQPASISCKSSQSLVHNNANTYLSWYLQKPGQSPQSLIYKVSNRFSGVPDRFSGSGSGTDFTLKISRVEAEDVGVYYCGQGTQYPFTFGSGTKVEIK
VH 3: QVQLVQSGAEVVKPGASVKVSCKASGYTFTSYAMHWVKEAPGQRLEWIGYIYPGQGGTNYNQKFQGRATLTADTSASTAYMELSSLRSEDTAVYFCARTGGLRRAYFTYWGQGTLVTVSS
VL 3: DIVLTQSPATLSLSPGERATISCRASQSVSSYGQGFMHWYQQKPGQPPRLLIYGASSRATGIPARFSGSGSGTDFTLTISPLEPEDFAVYYCQQNKEDPWTFGGGTKLEIK
- fold lower apparent affinity than the parental antiCD38_C2-CD38-1_VH1-VL1 antibody [1]: 7.5 fold
- fold lower apparent affinity than the parental antiCD38_C2-CD38-1_VH1-VL1 antibody [2]: 9 fold
- Kd [3]: 7.5 nM
- Kd [4]: 4.4 nM
- Kd [5]: 23 nM
- Kd [6]: 4 nM
- Kd [7]: 18 nM
- Kd [8]: 4 nM

B2: CD38SB19xCD28supxCD3mid trispecific binding protein (other)
VH 1: QVQLVQSGAEVVKPGASVKVSCKASGYTFTSYYIHWVRQAPGQGLEWIGSIYPGNVNTNYAQKFQGRATLTVDTSISTAYMELSRLRSDDTAVYYCTRSHYGLDWNFDVWGKGTTVTVSS
VL 1: DIQMTQSPSSLSASVGDRVTITCQASQNIYVWLNWYQQKPGKAPKLLIYKASNLHTGVPSRFSGSGSGTDFTLTISSLQPEDIATYYCQQGQTYPYTFGQGTKLEIK
VH 2: B1 VH 2
VL 2: B1 VL 2
VH 3: QVQLVQSGAEVAKPGTSVKLSCKASGYTFTDYWMQWVKQRPGQGLEWIGTIYPGDGDTGYAQKFQGKATLTADKSSKTVYMHLSSLASEDSAVYYCARGDYYGSNSLDYWGQGTSVTVSS
VL 3: DIVMTQSHLSMSTSLGDPVSITCKASQDVSTVVAWYQQKPGQSPRRLIYSASYRYIGVPDRFTGSGAGTDFTFTISSVQAEDLAVYYCQQHYSPPYTFGGGTKLEIK
- Kd [9]: 1.75 nM
- Kd [10]: 2.42 nM
- Kd [11]: 4 nM

B3: antiCD38_C2-CD38-1_VH5-VL3 (antibody, human IgG1, kappa, V domains shown)
VH: B1 VH 3 with P14S, Y32F, A33N, R44G, Q55N, L83I
VL: DIVLTQSPATLSLSPGERATISCRASESVDSYGNGFMHWYQQKPGQPPRLLIYLASSRATGIPARFSGSGSGTDFTLTISPLEPEDFAVYYCQQNKEDPWTFGGGTKLEIKR
- Kd (hCD38-his (SEQ ID NO: 2)): 0.82 nM
- Kd [12]: 0.55 nM

B4: antiCD38_C2-CD38-1_VH6-VL3 (antibody, human IgG1, kappa, V domains shown)
VH: B1 VH 3 with V20M, Y32F, A33N, Q55N, L83I
VL: B3 VL
- Kd (hCD38-his (SEQ ID NO: 2)): 0.31 nM
- Kd (cCD38-his (SEQ ID NO: 4)): 0.56 nM
